Measurements from paper doi:10.1101/2020.02.12.946293 (bioRxiv, 2020).

Biological target: hMLH1-hMLH3 (human, UniProt P40692;Q9UHC1)
Test: pull-down

Chain of hMLH1-hMLH3 (P40692 whole entry, chain 1 of 2): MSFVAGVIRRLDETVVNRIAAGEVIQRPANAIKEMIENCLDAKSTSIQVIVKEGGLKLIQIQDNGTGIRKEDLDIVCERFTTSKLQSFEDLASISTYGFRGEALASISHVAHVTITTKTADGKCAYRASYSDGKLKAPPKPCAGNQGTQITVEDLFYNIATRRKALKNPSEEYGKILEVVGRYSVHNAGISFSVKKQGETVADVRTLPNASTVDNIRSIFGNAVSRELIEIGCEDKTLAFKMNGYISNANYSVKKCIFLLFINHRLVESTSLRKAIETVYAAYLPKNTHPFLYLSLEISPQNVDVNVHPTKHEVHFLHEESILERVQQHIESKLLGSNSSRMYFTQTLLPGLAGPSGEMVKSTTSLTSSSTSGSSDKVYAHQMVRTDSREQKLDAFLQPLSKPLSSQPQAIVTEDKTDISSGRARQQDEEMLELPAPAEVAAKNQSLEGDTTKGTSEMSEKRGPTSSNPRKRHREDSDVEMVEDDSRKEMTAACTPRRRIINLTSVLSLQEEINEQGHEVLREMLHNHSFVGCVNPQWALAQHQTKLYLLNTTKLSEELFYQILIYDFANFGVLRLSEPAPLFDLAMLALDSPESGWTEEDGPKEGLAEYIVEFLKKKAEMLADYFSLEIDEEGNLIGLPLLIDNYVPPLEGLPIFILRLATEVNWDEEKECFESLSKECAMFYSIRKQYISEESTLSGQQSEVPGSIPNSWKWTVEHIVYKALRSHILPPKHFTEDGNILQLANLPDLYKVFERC
Chain of hMLH1-hMLH3 (Q9UHC1 whole entry, chain 2 of 2): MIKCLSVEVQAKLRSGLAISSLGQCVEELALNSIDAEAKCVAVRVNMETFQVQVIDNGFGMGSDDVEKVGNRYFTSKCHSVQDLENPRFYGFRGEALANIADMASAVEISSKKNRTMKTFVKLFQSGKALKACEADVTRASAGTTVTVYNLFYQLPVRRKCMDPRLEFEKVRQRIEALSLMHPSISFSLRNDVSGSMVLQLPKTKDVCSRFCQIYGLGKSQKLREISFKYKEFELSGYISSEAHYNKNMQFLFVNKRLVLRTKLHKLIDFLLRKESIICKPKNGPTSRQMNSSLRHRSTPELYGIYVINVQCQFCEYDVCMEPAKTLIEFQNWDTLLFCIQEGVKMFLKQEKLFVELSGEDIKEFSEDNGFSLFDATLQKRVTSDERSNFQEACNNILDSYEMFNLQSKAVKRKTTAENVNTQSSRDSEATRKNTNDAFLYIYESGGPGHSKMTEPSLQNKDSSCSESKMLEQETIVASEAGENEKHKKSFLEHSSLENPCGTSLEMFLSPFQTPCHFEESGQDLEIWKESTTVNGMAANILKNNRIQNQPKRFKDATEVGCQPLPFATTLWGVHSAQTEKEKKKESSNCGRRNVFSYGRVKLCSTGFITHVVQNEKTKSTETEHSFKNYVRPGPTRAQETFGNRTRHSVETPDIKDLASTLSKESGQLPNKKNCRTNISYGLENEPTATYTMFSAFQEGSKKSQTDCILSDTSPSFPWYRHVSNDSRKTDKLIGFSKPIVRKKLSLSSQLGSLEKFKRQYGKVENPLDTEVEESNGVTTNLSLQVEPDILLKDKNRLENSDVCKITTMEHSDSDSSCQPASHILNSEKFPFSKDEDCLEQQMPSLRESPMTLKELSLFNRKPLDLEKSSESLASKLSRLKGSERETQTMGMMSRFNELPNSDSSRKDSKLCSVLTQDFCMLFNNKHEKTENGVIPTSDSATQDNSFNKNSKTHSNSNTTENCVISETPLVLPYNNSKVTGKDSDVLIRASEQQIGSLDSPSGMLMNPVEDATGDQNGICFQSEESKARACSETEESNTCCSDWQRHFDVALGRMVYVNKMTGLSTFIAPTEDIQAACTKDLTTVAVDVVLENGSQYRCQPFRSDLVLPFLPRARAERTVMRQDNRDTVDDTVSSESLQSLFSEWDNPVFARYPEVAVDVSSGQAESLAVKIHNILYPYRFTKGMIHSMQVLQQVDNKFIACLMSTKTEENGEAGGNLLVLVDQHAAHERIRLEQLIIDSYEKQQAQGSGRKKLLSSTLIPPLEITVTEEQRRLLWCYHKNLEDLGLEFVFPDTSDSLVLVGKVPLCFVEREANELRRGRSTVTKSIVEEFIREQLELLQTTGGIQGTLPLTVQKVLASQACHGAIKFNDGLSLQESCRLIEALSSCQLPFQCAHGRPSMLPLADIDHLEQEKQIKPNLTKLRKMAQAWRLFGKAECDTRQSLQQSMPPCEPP

- binding result: binds
B1: hEXO1(D173A) (enzyme)
chain: MGIQGLLQFIKEASEPIHVRKYKGQVVAVDTYCWLHKGAIACAEKLAKGEPTDRYVGFCMKFVNMLLSHGIKPILVFDGCTLPSKKEVERSRRERRQANLLKGKQLLREGKVSEARECFTRSINITHAMAHKVIKAARSQGVDCLVAPYEADAQLAYLNKAGIVQAIITEDSALLAFGCKKVILKMDQFGNGLEIDQARLGMCRQLGDVFTEEKFRYMCILSGCDYLSSLRGIGLAKACKVLRLANNPDIVKVIKKIGHYLKMNITVPEDYINGFIRANNTFLYQLVFDPIKRKLIPLNAYEDDVDPETLSYAGQYVDDSIALQIALGNKDINTFEQIDDYNPDTAMPAHSRSHSWDDKTCQKSANVSSIWHRNYSPRPESGTVSDAPQLKENPSTVGVERVISTKGLNLPRKSSIVKRPRSAELSEDDLLSQYSLSFTKKTKKNSSEGNKSLSFSEVFVPDLVNGPTNKKSVSTPPRTRNKFATFLQRKNEESGAVVVPGTRSRFFCSSDSTDCVSNKVSIQPLDETAVTDKENNLHESEYGDQEGKRLVDTDVARNSSDDIPNNHIPGDHIPDKATVFTDEESYSFESSKFTRTISPPTLGTLRSCFSWSGGLGDFSRTPSPSPSTALQQFRRKSDSPTSLPENNMSDVSQLKSEESSDDESHPLREEACSSQSQESGEFSLQSSNASKLSQCSSKDSDSEESDCNIKLLDSQSDQTSKLRLSHFSKKDTPLRNKVPGLYKSSSADSLSTTKIKPLGPARASGLSKKPASIQKRKHHNAENKPGLQIKLNELWKNFGFKKDSEKLPPCKKPLSPVRDNIQLTPEAEEDIFNKPECGRVQRAIFQ
